# Test results: the supplement of paper PMC10567573
# ± gives the standard deviation.
# Test: protein stability index of a GFP-peptide fusion (GPS, HEK-293T) (PSI 1-6); higher = more stable
# [1] = treatment: DMSO, c terminus: a fixed tail appended
# [2] = treatment: MLN4924 1 uM, 8 h, c terminus: a fixed tail appended
# [3] = treatment: DMSO, c terminus: native
# [4] = treatment: MLN4924 1 uM, 8 h, c terminus: native
# 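Also: 24-mer peptide tiles fused after GFP, lentivirally expressed, FACS-sorted into six equal bins by GFP/DsRed ratio, decoded by Illumina sequencing, PSI is the read-weighted mean bin number.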
Sequence,protein stability index [1],protein stability index [2],protein stability index [3],protein stability index [4]
THEEGSYLFWEFATDNYDIGFGVY [ACBD3],2.65 ± 0.48,2.15 ± 0.32,–,–
DCGLNLKQRGYFFLDERLYCESHA [PDLIM4],2.43 ± 0.17,2.3 ± 0.44,–,–
PMAEYNMPQYILREFKVTDARDGQ [PTPRD],3.8 ± 0.24,3.75 ± 0.27,–,–
DERRQLQHLKSKALRERWLLEGTP [PALM],3.54 ± 0.44,3.71 ± 0.23,–,–
CEQCGKCKCGECTAPRTLPSCLAC [SPRY1],4.34 ± 0.2,4.56 ± 0.22,–,–
MGLVETKLAIIPGGGGTQRLPRAI [AUH],2.99 ± 0.82,3.34 ± 0.35,–,–
WIGYEHTSFCGQQFILERGEYPRW [CRYBA1],2.69 ± 0.41,2.21 ± 0.15,–,–
RKHIIEGLKASLERLQLEYVDVVF [KCNAB2],2.94 ± 0.58,3 ± 0.53,–,–
RLPESVERLTGVSISQVNHKPLRT [FLOT1],4.06 ± 0.13,4.16 ± 0.32,–,–
EPPPALPPAADAPVTQIGFEAPPL [TRIM55],5.24 ± 0.22,5.39 ± 0.11,–,–
VSLKQEGDDQPSETDHLSMEEEDP [TPRG1],5.61 ± 0.22,5.63 ± 0.2,–,–
LFDTKHDVYSFAIVIWGVLTQKKP [RIPK4],2.49 ± 0.56,2.72 ± 0.17,–,–
EPPPEVWQVLKTHPGDPRFQCSLW [POLD4],2.45 ± 0.42,2.55 ± 0.31,–,–
TLSTIEFQREALENSHTNTEVLRN [CHMP4C],4.66 ± 0.14,4.92 ± 0.19,–,–
SAASTSFQPQPVQPQQGYIPPMAQ [ZNF207],4.3 ± 0.17,4.38 ± 0.1,–,–
EPFGKERDAAIKKLATEAGVEVIV [CRY1],3.59 ± 0.22,3.48 ± 0.28,–,–
WTLEDEIHSPAHPEIEKADDHLQQ [ZNF649],5.2 ± 0.34,5.26 ± 0.3,–,–
LCKATSPADALQYLLQFARKPVEA [INTS4],2.05 ± 0.28,2.12 ± 0.29,–,–
ETLEGREKAFIAHFQDNLHSVNRD [MED27],4.32 ± 0.22,4.26 ± 0.2,–,–
REEERPLPRRDFQRQVWLLFEYPE [KCNA3],2.64 ± 0.43,2.67 ± 0.37,–,–
RKKDKTWMHTPEALSKHFIPYNAK [GULP1],2.82 ± 0.25,2.99 ± 0.47,–,–
LAWRIVNDTYRTDLCLLYPPFMIA [CCNC],2.86 ± 0.49,3.34 ± 0.71,–,–

Sequence,protein stability index [1],protein stability index [2],protein stability index [3],protein stability index [4]
TVEERQTGMWWRHLVAGGGAGAVS [SLC25A25],2.98 ± 0.39,2.96 ± 0.43,–,–
EDKIFPVPEEPPVKKLMRTSTPPP [ZBED1],4.8 ± 0.27,4.61 ± 0.34,–,–
ELMAELEELEQEELNKKMTNIRLP [CHMP4C],3.55 ± 0.3,3.65 ± 0.22,–,–
CQYEALVENNRRDVEAWFNTQTEE [KRT36],2.86 ± 0.39,2.83 ± 0.35,–,–
MLKAEETCAPSVSYFKCVQKEVLP [CCND1],3.52 ± 0.12,3.55 ± 0.24,–,–
PSTTERISTSGQAGTSSHGCWAWP [PXN],3.04 ± 0.21,3.17 ± 0.23,–,–
YEIRVKTNLPIFKLKESTVRRRYS [SNX3],2.44 ± 0.4,2.27 ± 0.22,–,–
QHKDQTAALPLAAEETANLPPSPP [MAP2],5.49 ± 0.086,5.45 ± 0.12,–,–
VFLVSCALPDSVLRRFVVRTMCAV [AUP1],2.71 ± 0.49,2.67 ± 0.068,–,–
PTQQDVLRTRVKTTGIVETHFTFK [GNAI1],3.05 ± 0.42,3.51 ± 0.37,–,–
SCSEICYTFIIVPKMLVDLLSQKK [OR10K2],2.91 ± 0.77,2.71 ± 0.79,–,–
EEELNFEKGETMEVIEKPENDPEW [NCK2],5.53 ± 0.32,5.55 ± 0.5,–,–
DRPDLSLTVLPKLQARERGEEQVE [C2CD2L],5.37 ± 0.13,5.27 ± 0.16,–,–
RFVPSNPIGILTTSYCELLQNKVP [PPTC7],2.57 ± 0.29,2.51 ± 0.18,–,–
QGSRGLTDQAIFYAVTPLPWCPHL [HDAC6],2.64 ± 0.66,2.41 ± 0.46,–,–
DYEKMFGTKCHGCDFKIDAGDRFL [PDLIM7],2.92 ± 0.31,2.96 ± 0.66,–,–
EPELSPAYLISEAMRRSRMSLYC [GFOD1],–,–,2.3 ± 0.81,2.27 ± 0.3
RLCLVCGDIASGYHYGVASCEACK [ESRRG],4.15 ± 0.12,4.21 ± 0.18,–,–
WQVLKTHPGDPRFQCSLWHLYPL [POLD4],–,–,2.42 ± 0.62,2.14 ± 0.33
GGGLTGVSGSHFVGVDGVRAFLQT [PCDHGA10],2.82 ± 0.29,2.83 ± 0.32,–,–
QKILCAKAENARLVVNIDNAKLAS [KRT34],3.49 ± 0.2,3.56 ± 0.11,–,–
MLQIPQEKSQAYPRRRRPGCYAYR [MYORG],3.22 ± 0.43,3.23 ± 0.23,–,–

Sequence,protein stability index [1],protein stability index [2],protein stability index [3],protein stability index [4]
EFMLLPANQLIDIISSDELNVRSE [KLHL20],3.71 ± 0.37,3.38 ± 0.44,–,–
FYLVYFKIQASGETPNSLNTTVIP [LYSMD4],2.9 ± 0.04,–,–,–
GNPRALSFVLSSLQLGEGVEFDVL [OAS1],2.29 ± 0.22,2.12 ± 0.32,–,–
VPQIFKYGETCFPKGRFERKRNPS [ZNF24],3.8 ± 0.76,3.93 ± 1.1,–,–
ERHLVEIKQKLGMNLMNELKQNFS [TPD52L1],3.04 ± 0.2,2.71 ± 0.41,–,–
KSKASFLLLASGLVITDFFGHLIN [PTGFR],3.11 ± 0.27,2.88 ± 0.57,–,–
ESPFSRKLDLWSFLDIPRSRLVKY [NET1],2.06 ± 0.14,2.15 ± 0.21,–,–
KDGEYCWRWTGFNFGFDLLVTYTN [GMCL1],3.44 ± 0.41,2.89 ± 0.46,–,–
SHLVIHNLFEGMIWFIVPISCVIC [CDS2],3.09 ± 0.45,2.81 ± 0.2,–,–
LLKHPNIVRLHDSISEEGFHYLVF [CAMK2D],2.42 ± 0.32,2.2 ± 0.18,–,–
LGSAPLDQEPLLSIDLGTAHSAAV [NEK8],4.08 ± 0.22,4.11 ± 0.15,–,–
ELGSPLRRSISSSRSENVLSRLSL [PSD2],3.07 ± 0.42,3.2 ± 0.13,–,–
FGVTYLEDYSAEYIIQQGGWGTVF [BCL2L13],2.48 ± 0.38,2.33 ± 0.26,–,–
ADWFMSLGVGLLTFASLETVGIYF [TMEM40],3.37 ± 0.22,3.04 ± 0.52,–,–
RHLDFHVKDLIKKLLVVDRTRRLG [PRKX],2.57 ± 0.042,2.41 ± 0.36,–,–
IRGPAGNNDCRIYVGNLPPDIRTK [SRSF1],3.43 ± 0.25,3.38 ± 0.27,–,–
TQEKKAESKEPIEEEPTGAGLNKD [SDE2],5.65 ± 0.12,5.41 ± 0.28,–,–
VETELQRRNEETPEEGQQPWLCGE [GDAP1],5.38 ± 0.1,5.5 ± 0.15,–,–
SVQQNGSIYIHVYFTKSGFHPDPR [CLPTM1],3.14 ± 0.98,2.29 ± 0.56,–,–
CEEEVFPLAMNYLDRFLSLEPVKK [CCND1],3.36 ± 0.16,3.3 ± 0.28,–,–
RDVALQIHFTLIQAFCCENDINIL [GADD45A],2.92 ± 0.52,2.94 ± 0.59,–,–
